test: soluble on expression in E. coli; label from the status in PepcDB or PDB records

| Sequence | soluble on expression in E. coli |
| --- | --- |
| GPGSMSATDASITGAEAAPASPGTSPAATGPASTAAVTAYTVGIDIGSATTRVAVMDPAKLMPTIIRNALGNEATSTVVSFAANEARSFGENAAARQVTKASETIVDLAPWIFGYTSGEQVPKDTAVSLQVVSPATAMTEACVLKSRQLGAQEHLTHPAQVAAFYIKSLLQLLPEKGMIRTSPVCLAVPSAAYAASFEALRQATLLAGVPQEQTIIAHSDEATAVYFHHLQYSGLPAKHDGAAVPVVLIDIGQSCSVASLIMASQPRVEKVDCQTLRMGSEYIDALLCSHVYSELGKKFGAAADPLRGDIKSFRKILRECRKAKEVLSTTDETQVQLEGLSGDIDIIVSVTRAMMEQAALPFLQAVRAMLTAIKEKLPVPSATEDGSQAAAVPPRVEVIGGGWRSVCVMEAIREVFGITRVGVSLDANLSVAEGSAILAEVRQLTIARQQDEEQTAQATTASSVAEAHQVELIGFEVLDANSPINRPLSEAGVRAVTEWIMLEKQMEDSDARIHERLAALNRLDSYILQTLAAVDNCAASSEKKTEMRAYIEEVDAYVRSEGDEASSVELNEKLAAVQAHVTEHFSEIEAYYESVRAEEKRKEEELVKLSKERQEDESDLKSDPQRLRMAQKRREQGQGLFREECWAEAQTRFVQALSILGQLYDTSSEENKTKKREISLSCYLNIASCSVKLGLWKNAVNNCTNALELVPDHPKALFRRGQAYSALKEYEEAVTDLEKAKAVSQDDPVVVAELNKAKAALGAEKAKTKKMFAKMFS | soluble |
| GPGSMSCEVTMVGRDRDYLHDVQYGSRTFRLADRRIRAPSGLTVRAVDAEPIKDDVGVDAVLSCVPATCLENDGAHTPPMVRCAQNHADAPMLLFTRGFTREGLTPLEQLGRVSQDLPSKLVVVSGPLFAREWAVTSAAACDGGDANRNSGVTLSFALGGKADVELSRSLQSLTERLWRRESVTWLDGPLAAEILSLVNGCVPLCSMGAGLVSSEYPGSVSATMSYLQHATSATEQLVNGVLGLPLGSPLPSCAVATIAMACTNHAAREFVFGRRLDYHFRHRDAIRAVFPAGSHEALDSTVSGLHMLLRRHAMSSPFYEVLMDTFLTLMRASVAGRELVRLGHYEYRHKLRDEDTVLLRHTEVVDEAMLSGDHQRFDDARRALQMAFGDSSCGAPTMPPL | not soluble |
| GPGSMSKQKNVEINYDEVDETTGFKAAEMFVWLKFEESYLQKPEDEREADVDAWADTFCEEMEGEGMNYDRNFVRSVCTLGIYAGLRDEFQQRTGSGKAIYANGDRYDGEFFEGKKHGRGRYIFVSLGKSECDRIVEKELQKLGDVVAGENFVKAVADRYKIGCHIISYIIEYGFHPCYHGDYVRGKRVGRGLMKNKDGTVYKGEFLENKREGRGMFFYLNGDIYSGNWKNGRKHGYGTYHFVGGNEYRGMWNDGVFTHGQWIFPDGVYYEGHFNKKNRPCDEAASMHYPALKMAQTGTFKRGTWAPTSALEVCEETPVDGMTWTD | soluble |
| GPGSMSLEGKVALITGAGSGFGEGMAKRFAKGGAKVVIVDRDKAGAERVAGEIGDAALAVAADISKEADVDAAVEAALSKFGKVDILVNNAGIGHKPQNAELVEPEEFDRIVGVNVRGVYLMTSKLIPHFKENGAKGQECVILNVASTGAGRPRPNLAWYNATKGWVVSVTKALAIELAPAKIRVVALNPVAGETPLLTTFMGEDSEEIRKKFRDSIPMGRLLKPDDLAEAAAFLCSPQASMITGVALDVDGGRSIGGRSI | soluble |
| GPGSMSTSEGNAANRFAGRVKQAEDPFVKALRIKVNGLKRNMKDLEFAKKEVVCETARLESIRDTNPDRVKQQENVIAEAQMMIPHSENRVRAAIKDLQDFLDTHENDAEEGELMQDARTTLESAQLTLSKQ | soluble |
| GPGSMTGRTSSVSENHLGFSAEGGVVNYALLQPHRTEAERRPLAPSEVAQHLMASAAAASGATHSATGGSGAHTMRQCTPKELATRSSKVVTLYDLAGHERYLKTTVLGMTRNMPDYACIVISANNGIQRMTKEHLALCLALKLPFFIVVTRIDSTPPNIHDETLSNIHKLLKIPTVRKLSYPVRRHDEVTLAAKNCAMIALPRSSKSATLPVLASLTYCNSLTYSRLGRTGGRRATCQRR | not soluble |
| GPGSMVAPAQRTSVYVGDLPIDLPRPEEAINNLFSTVAPVVSVKVCRDMATQRSLGYGYVNFQTTADAEKVIDALNYTGIAPGRQIRVMFSIRDPLQRKSGMNNVFVKKLDTAINAKELQAAFSKCGRVLSCKVALDSAGNSKGYGFVQFETADGTKAALEMNGSKLGDSEVVVAPFVRRVDREAMAAKSFRNIYIKNITASATEADVKAIVEEFGKVDSLFLSEHARFPTKFALVAFEEHQAAVQAIAALNESEESGLTEKAVKLVVCRALSKSERDREKKKAASLYQNHGRNLYIKHLPDDITDDRLREIFEPFGKITSCAIMKEPNGTLKGFAFVCFEDKQHASAALRSLNGHPLEHSAKPLYVSHAEQKDMRIRLLQQRRAAMRHQSRMAPLMNTFPQQWPRHPFPHMVPPMMPPPPPPNMGMPQFMSGPMIRRPVMEPHLMQGEPMRPPNRYTQAREQYPPQQRQDGVDMNYLSTLSPEQQKNYLGELLYSRILPLESSNAAKITGMLLEMSREEIFEILADHFALLSKIQEANAVLQQHTGN | soluble |
| GPGSMVNATPDMARYCCAVIHSKLRGEKTPEPPASITNEPSPIFVSLKTLDGDLRGCIGNFSAEPLHKQLRDYAVAAAFQDNRFPSVTLAELPMLSCSVCLLHSFEKAHRWDDWEIGVHGIRIRYKNYSATYLPSVMPEQRWDHIQAIRSLMRKAGCGEEVSDAILNELDVTRYQESKSTVAFKSANLGSLPC | soluble |
| GPGSMWAQQLSLQKQTTKISPADKDAQALITANVFIEGNRMRVLKSMEQYQAVADSAYWNYGYMGGSMVTTMAICLSLSGRLPLLQRYASWISLAGGYFGGKAALGIHNARNLSHVVNTIDSAIVETRKMDEQYNFKIPDYAREVEALQRRKFELLPTSAEAIEARKNDLNNMPLDEKVDALVEAYEKRRQAVGKE | not soluble |
| GPGYNEPQDKKTMMMNEEDDGNGMDELLAVLGYKVRSSEMADVAQKLEQLEVMMSNVQEDDLSQLATETVHYNPAELYTWLDSMLTDLNPPSSNAEYDLKAIPGDAILNQ | soluble |
| GPLGSPWYYGKVTRHQAEMALNERGHEGDFLIRDSESSPNDFSVSLKAQGKNKHFKVQLKETVYCIGQRKFSTMEELVEHYKKAPIFTSEQGEKLYLVKHLS | soluble |
| GPMGMQSIREQSCRVVTCKTCKYTHFKPKETCVSENHDFHWHNGVKRFFKCPCGNRTISLDRLPKKHCSTCGLFKWERVGMLKEKTGPKLGG | soluble |
| GPPGPPGPPGPPGPRGRTGPPGPPGPPGPP | soluble |
| GPSLSGELHIFCSVTAAYSHLPPILDRFRAEHPSVEIKLTTGDAADAMEKVVTGEADLAIAGKPETLPGAVAFSMLENLAVVLIAPALPCPVRNQVSADKPDWSTVPFIMADQGPVRRRIELWFRRNKISNPMIYATVGGHEAMV | not soluble |
| GPTSPGPALTDWARVREELASTGPPVVAMPVVIKTEGPAWTPLEPKLITRLADTVRTKGLRSPITMAEVEALMSSPLLPHDVTNLMRVILGPAPYALWMDAWGVQLQTVIAAATRDPRHPANGQGRGERTNLNRLKGLADGMVGNPQGQAALLRPGELVAITASALQAFREVARLA | soluble |
| GQGVSRSGALDLGALRSANRTVGNPSDMACVESVLGGLSFSCHGSAVIAITGAHTPVTITSASGLQWQASNYQPIELETGDRVSLGSPKAGLRSYLAIRGGFDVTPVLGSLSTDTLAQLGPEALATGDRLGFTAPVNGTSVSLNEAPAFELPTTANIVTLDVVMGPRTDWFTENAIQRLSSQLWRVTPQSNRVGIRLAGDTPLERSNHQELPSEGTSVGAIQVPASGQPVLFLADHPLTGGYPVIASVASHHLDLAGQIPVNAQIRFNPLGAFEEMQPSTEASFSTADAKNNS | not soluble |
| GQLQEPYETVTIDVEEQHQGPIMEKMGVRKAELTDMAPDGTGRIRMDFIMPSRGLIGFQTEFMTLTSGSGLIYHTFFEYGPHKGGEIGQRKNGVMIGNATGKALTNAIFNLQSRGRMLIGHGVDIYEG | not soluble |
| GQSITDYNYKKPLHNDYQILDKSKIFGSNSGSFVMYSMKKDKYYIYNEKESRKRYSPNSTYKIYLAMFGLDRHIINDENSRMSWNHKHYPFDAWNKEQDLNTAMQNSVNWYFERISDQIPKNYTATQLKQLNYGNKNLGSYKSYWMEDSLKISNLEQVIVFKNMMEQNNHFSKKAKNQLSSSLLIKKNEKYELYGKTGTGIVNGKYNNGWFVGYVITNHDKYYFATHLSDGKPSGKNAELISEKILKEMGVLNGQ | soluble |
| GRKQEPFENVTLDVEEQHQGSVMQALGERKGDLKNMNPDGKGRVRLDYVIPSRGLIGFRSEFMTMTSGTGLLYSTFSHYDDVRPGEVGQRNNGVLISNGQGKAVAFALFGLQDRGKLFLGHGAEVYEGQI | not soluble |
| GRMRIQEQSGARDKMVIGAGGLEDYIDKAMDDVAPNLKALVGAKLGARLISLAGGLKELAMLPSSTIQVLGAEKALFRHLRTGAKPPKHGVIYQYPAINRSPWWQRGKIARALAGKLAIAARVDYFSGEYIAEELKKELEARIKEIKEKYPRPPKRRKEERKGRKPWKE | soluble |
| GRPVITTSIVQDQGIDELEAAIASLFFESGIESGDVTYVSNSRHIALLEQAKRAVEDALEAIEMDVPIDMVQIDITRAWELLGEIIGDSVHESLIDQLFSQFCLG | soluble |
| GSDGDALLKPCKLGDMQCLSSATEQFLEKTSKGIPQYDIWPIDPLVVTSLDVIAPSDAGIVIRFKNLNITGLKNQQISDFQMDTKAKTVLLKTKADLHIVGDIVIELTEQSKSFTGLYTADTNVIGAVRYGYNLKNDDNGVQHFEVQPETFTCESIGEPKITLSSDLSSALEKDSGNNSLEPDMEPLKTLRQAAICKIAEACYISVVHNIRASAKILPASSFFENLN | soluble |
| GSGIMAASRPLSRFWEWGKNIVCVGRNYADHVREMRSAVLSEPVLFLKPSTAYAPEGSPILMPAYTRNLHHELELGVVMGKRCRAVPEAAAMDYVGGYALCLDMTARDVQDECKKKGLPWTLAKSFTASCPVSAFVPKEKIPDPHKLKLWLKVNGELRQEGETSSMIFSIPYIISYVSKIITLEEGDIILTGTPKGVGPVKENDEIEAGIHGLVSMTFKVEKPEY | soluble |
| GSHMASPTPAPSQSPIRRDAFSIIEAEEYNSTNSSTLQVIGTPNNGRGIGYIENGNTVTYSNIDFGSGATGFSATVATEVNTSIQIRSDSPTGTLLGTLYVSSTGSWNTYNTVSTNISKITGVHDIVLVFSGPVNVDNFIFSRSS | soluble |
| GSHMASRTPKKLSNIALTKETRQSSTDYNGFSRLAVDGNKNGDYGHHSVTHTKEDSPSWWEIDLAQTEELEKLIIYNRTDAEIQRLSNFDIIIYDSNDYEVFTQHIDSLESNNLSIDLKGLKGKKVRISLRSAGIPLSLAEVEVYTYK | soluble |
| GSHMDADGKLLTEGGENENLRKNASKKETSLFQGFKSYLPIAELAIENTERLNY | soluble |
| GSHMHRVINHPYYFPFNGKQAEDYLRSKERGDFVIRQSSRGDDHLAITWKLDKDLFQHVDIQEMEKENPLAMGKVLVVEGQRYHDLDQIIVEYLQNKIRLLNE | soluble |
| GSHMKEDQVVAEEPGFQDEEESLFQDIDLLQKHGINVADIKKLKSVGICTIKGIQMTTRRALCNVKGLSEAKVDKIKEAANKLIEPGFLTAFEYSEKRKMVFHITTGSQEFDKLLGGGIESMAITEAFGEFRTGKTQLSHTLCVTAQLPGAGGYPGGKIIFIDTENTFRPDRLRDIADRFNVDHDAVLDNVLYARAYTSEHQMELLDYVAAKFHEEAGIFKLLIIDSIMALFRVDFSGRGELAERQQKLAQMLSRLQKISEEYNVAVFVTNQMTADPGATMTFQADPKKPIGGHILAHASTTRISLRKGRGELRIAKIYDSPEMPENEATFAITAGGIGDAKE | soluble |
